Reference: PMC12122859 (Communications Biology, 2025)

Assays:
[1] = target: T1, E2 alone (as compared with E1E2) (Hepatitis C virus genotype 1b, strain …)
T1 chain: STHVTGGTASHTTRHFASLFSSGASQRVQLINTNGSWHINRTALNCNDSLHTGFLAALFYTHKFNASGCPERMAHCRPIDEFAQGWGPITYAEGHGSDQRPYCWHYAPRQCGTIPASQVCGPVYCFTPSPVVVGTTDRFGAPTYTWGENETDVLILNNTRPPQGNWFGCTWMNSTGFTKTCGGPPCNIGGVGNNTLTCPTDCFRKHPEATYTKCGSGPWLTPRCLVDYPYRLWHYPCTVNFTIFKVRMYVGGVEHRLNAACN

[2] = target: membrane-bound recombinant E1E2 (hepatitis C virus (strain not stated))
[3] = target: soluble recombinant E1E2 (hepatitis C virus (strain not stated))

B1: CBH4B (antibody, format not stated, as tested on E1E2 and E2 alone) (antibody, V domains shown)
VH: QIQLVQSGAEVKKPGSSVKVSCRASGGSFGTYGITWVRQAPGQGLEWVGGIVPLFDRPNYAQKFQDRVAITADESTSTAYMELSSLRFDDTAVYYCAREADIVVGGSSYFDSWGQGTLVTVTK
VL: ESVLTQSPGTLSLSPGERATLSCRASQSVSSTYVAWYQQKPGQAPRLLIYDASIRATGVPDRFSGGGSGTDFTLTISRLEPEDFAVYYCQQYGGSPFFGGGTKVEIK
B1 was tested, and the Kd [1] was 0.08 nM, the Kd [2] was 3.1 nM and the Kd [3] was 19 nM.
